Results published in patent US5723594.

Target: PDGF-AB (Homo sapiens) (UniProt P04085+P01127)
Experiment: filter

PDGF-AB (Homo sapiens), sequence (P01127 82-190, chain 2 of 2, other chains not shown): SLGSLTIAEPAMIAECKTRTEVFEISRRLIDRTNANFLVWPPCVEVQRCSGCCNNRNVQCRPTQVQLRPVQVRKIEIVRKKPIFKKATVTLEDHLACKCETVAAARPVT

Sequence | binding signal (fold weaker than round 12 pool) (initial random library) | Kd (round 12 enriched pool, data not shown) [nM]
ATCCGCCTGATTAGCGATACTNNNNNNNNNNNNNNNNNNNNNNNNNNNNNNNNNNNNNNNNACTTGAGCAAAATCACCTGCAGGGG [random ssDNA library] | 700 | –
ATCCGCCTGATTAGCGATACTNNNNNNNNNNNNNNNNNNNNNNNNNNNNNNNNNNNNNNNNACTTGAGCAAAATCACCTGCAGGGG [ssDNA SELEX round 12 pool] | – | 0.05
